Reference: publication PMC7955110, “Cryo-EM structure of amyloid fibrils formed by the entire low complexity domain of TDP-43” (Nature Communications, 2021)

Biological target: the molecule itself
Experiment: cryo-EM structure; amyloid fibrils formed at 30 uM protein in 20 mM sodium acetate pH 4.0, 37 °C with rotation, four rounds of sequential seeding (10% w/w sonicated fibrils); helical reconstruction of twisted fibrils, 3.2 Å

B1: TDP-43 low complexity domain (transactive response DNA-binding protein of 43 kDa, C-terminal low-complexity domain) (domain or fragment, UniProt Q13148 267-414, looked up)
chain: NRQLERSGRFGGNPGGFGNQGGFGNSRGGGAGLGNNQGSNMGGGMNFGAFSINPAMMAAAQAALQSSWGMMGMLASQQNQSGPSGNNQNQGNMQREPNQAFGSGNNSYSGSNSGAAIGWGSASNAGSGSGFNGGFGSSMDSKSSGWGM
notes: TDP-43, entire C-terminal low-complexity domain; Wild-type, non-phosphorylated; The assayed form is an amyloid fibril: a single protofilament of stacked subunits with an ordered core of residues 276-414; Five chains were built in the model; also called TDP-43 LCD; LCD; source: Rosetta (DE3) pLysS cells, purified (Ni-NTA in 8 M urea, HPLC on a C4 column), lyophilized
**Q.** Does B1 bind?
**A.** Result: binds
